Targets include DLG1_2, Q12959; DLG4_2, P78352; FRMPD2_3, Q68DX3; Inadl_3, Q8NI35; Inadl_5, Q8NI35; LIMK2, P53671; PDLIM1, O00151; TJP1_3, Q07157.
What all share (assay): holdup assay
Parameters in all cases: key: below the threshold = too weak to quantify, mostly under pKd 3.1 to 4
What all share (conditions): plain residues with an end cap or a label only (N-terminal biotin on a linker: ado-ado)

The target of a further assay is T1, APBA2_2, Q99767.
T1 sequence (Q99767 654-744, limits assumed, looked up): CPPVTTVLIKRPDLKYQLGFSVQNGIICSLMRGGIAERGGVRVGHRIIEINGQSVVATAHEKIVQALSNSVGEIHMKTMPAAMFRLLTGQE

Another assay deals with T2, ARHGAP21, Q5T5U3.
T2 sequence (Q5T5U3 45-169, limits assumed, looked up): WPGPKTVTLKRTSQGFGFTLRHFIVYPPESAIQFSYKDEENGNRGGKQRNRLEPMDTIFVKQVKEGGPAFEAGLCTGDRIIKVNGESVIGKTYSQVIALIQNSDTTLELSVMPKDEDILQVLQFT

For the next assay, the target named is T3, DLG3_2, Q92796.
T3 sequence (Q92796 221-321, limits assumed, looked up): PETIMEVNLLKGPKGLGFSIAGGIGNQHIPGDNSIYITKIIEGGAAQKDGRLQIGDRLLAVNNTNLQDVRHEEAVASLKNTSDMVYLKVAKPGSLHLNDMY

The target of another assay is T4, DVL3, Q92997.
T4 sequence (Q92997 244-331, limits assumed, looked up): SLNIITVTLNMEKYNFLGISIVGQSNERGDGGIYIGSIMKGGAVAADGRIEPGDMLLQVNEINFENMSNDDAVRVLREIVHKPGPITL

A further assay deals with T5, HTRA4, P83105.
T5 sequence (P83105 378-476, limits assumed, looked up): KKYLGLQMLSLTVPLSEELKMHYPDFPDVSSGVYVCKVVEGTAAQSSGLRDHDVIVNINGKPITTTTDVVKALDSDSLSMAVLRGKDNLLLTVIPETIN

Another assay concerns the target T6, LNX2_3, Q8N448.
T6 sequence (Q8N448 463-564, limits assumed, looked up): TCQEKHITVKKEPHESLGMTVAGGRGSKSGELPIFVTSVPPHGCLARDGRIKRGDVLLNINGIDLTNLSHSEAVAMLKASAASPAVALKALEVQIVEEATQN

Another assay deals with T7, MPP6, Q9NZW5.
T7 sequence (Q9NZW5 125-219, limits assumed, looked up): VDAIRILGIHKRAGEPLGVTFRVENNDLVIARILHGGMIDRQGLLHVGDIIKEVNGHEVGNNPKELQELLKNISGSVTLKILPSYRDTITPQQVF

In another assay the target is T8, NHERF3_1, Q5T2W1.
T8 sequence (Q5T2W1 4-100, limits assumed, looked up): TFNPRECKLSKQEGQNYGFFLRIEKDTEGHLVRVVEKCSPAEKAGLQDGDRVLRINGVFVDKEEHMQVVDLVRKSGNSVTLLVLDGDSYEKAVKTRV

The next assay concerns the target T9, PDZD2_2, O15018.
T9 sequence (O15018 329-429, limits assumed, looked up): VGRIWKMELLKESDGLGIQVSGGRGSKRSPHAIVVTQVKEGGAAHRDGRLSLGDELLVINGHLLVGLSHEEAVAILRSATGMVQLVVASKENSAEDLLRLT

A further assay concerns the target T10, RADIL, Q96JH8.
T10 sequence (Q96JH8 971-1071, limits assumed, looked up): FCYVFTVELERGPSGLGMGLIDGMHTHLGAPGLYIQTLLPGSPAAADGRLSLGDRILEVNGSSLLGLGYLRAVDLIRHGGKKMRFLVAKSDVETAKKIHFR

Another assay addresses T11, RAPGEF6, Q8TEU7.
T11 sequence (Q8TEU7 525-625, limits assumed, looked up): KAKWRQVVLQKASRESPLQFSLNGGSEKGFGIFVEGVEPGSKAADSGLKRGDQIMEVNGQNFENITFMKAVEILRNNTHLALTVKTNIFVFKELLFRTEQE

A further assay concerns the target T12, SNTB1, Q13884.
T12 sequence (Q13884 107-205, limits assumed, looked up): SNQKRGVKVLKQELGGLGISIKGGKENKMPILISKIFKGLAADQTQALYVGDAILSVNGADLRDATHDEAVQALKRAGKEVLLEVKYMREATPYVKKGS

For the next assay, the target named is T13, SNTG1, Q9NSN8.
T13 sequence (Q9NSN8 52-150, limits assumed, looked up): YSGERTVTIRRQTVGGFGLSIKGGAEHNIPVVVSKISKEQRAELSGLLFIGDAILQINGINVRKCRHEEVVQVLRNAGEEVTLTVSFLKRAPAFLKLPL

In the next assay the target is T14, TIAM2, Q8IVF5.
T14 sequence (Q8IVF5 885-986, limits assumed, looked up): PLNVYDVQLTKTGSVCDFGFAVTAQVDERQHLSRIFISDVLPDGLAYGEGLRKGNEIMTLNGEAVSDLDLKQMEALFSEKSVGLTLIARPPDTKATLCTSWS

Broadly, the pKd is the Kd on a negative log10 scale, so that one unit is a factor of ten.

Inadl_5, Q8NI35, sequence (Q8NI35 673-780): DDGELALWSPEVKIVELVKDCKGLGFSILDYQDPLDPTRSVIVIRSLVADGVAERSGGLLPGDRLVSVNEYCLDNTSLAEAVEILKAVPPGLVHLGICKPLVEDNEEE
Inadl_3, Q8NI35, sequence (Q8NI35 359-469): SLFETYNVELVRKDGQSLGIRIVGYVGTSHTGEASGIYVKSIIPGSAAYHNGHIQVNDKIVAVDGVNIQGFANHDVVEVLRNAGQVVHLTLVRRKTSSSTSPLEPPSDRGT
PDLIM1, O00151, sequence (O00151 1-87): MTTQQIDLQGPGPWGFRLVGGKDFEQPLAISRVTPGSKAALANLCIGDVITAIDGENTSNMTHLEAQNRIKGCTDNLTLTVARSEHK
TJP1_3, Q07157, sequence (Q07157 416-512): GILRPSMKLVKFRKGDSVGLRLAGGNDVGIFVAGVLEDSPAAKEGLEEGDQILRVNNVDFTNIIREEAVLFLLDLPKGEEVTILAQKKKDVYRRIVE
DLG4_2, P78352, sequence (P78352 155-259): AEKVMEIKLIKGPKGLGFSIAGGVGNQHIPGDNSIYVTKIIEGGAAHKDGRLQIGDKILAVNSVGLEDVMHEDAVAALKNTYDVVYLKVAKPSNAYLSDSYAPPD
FRMPD2_3, Q68DX3, sequence (Q68DX3 1073-1166): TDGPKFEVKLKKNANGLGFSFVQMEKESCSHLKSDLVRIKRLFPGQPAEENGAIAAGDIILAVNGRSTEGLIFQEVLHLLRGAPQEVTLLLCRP
DLG1_2, Q12959, sequence (Q12959 314-412): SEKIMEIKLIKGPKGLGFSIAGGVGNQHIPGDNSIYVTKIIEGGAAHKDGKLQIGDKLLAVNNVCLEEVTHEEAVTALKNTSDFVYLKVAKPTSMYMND
LIMK2, P53671, sequence (P53671 143-248): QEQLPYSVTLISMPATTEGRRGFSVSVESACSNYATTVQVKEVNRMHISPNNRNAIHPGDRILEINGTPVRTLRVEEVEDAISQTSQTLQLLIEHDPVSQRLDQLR

For GDSSRKEYFI [GYPC, P04921], the pKd result in the assay with APBA2_2, Q99767 was “below the threshold”; in the assay with ARHGAP21, Q5T5U3, “below the threshold”; with DLG1_2, Q12959, 3.95; with DLG3_2, Q92796 it was 4.19; with DLG4_2, P78352, 3.61; with DVL3, Q92997 it was 4.34. The pKd is 3.76 with FRMPD2_3, Q68DX3; “below the threshold” with HTRA4, P83105; 4.2 in the assay with Inadl_3, Q8NI35; 5.16 with Inadl_5, Q8NI35; “below the threshold” in the assay with LIMK2, P53671; “below the threshold” in the assay with LNX2_3, Q8N448. For the same molecule, the negative-log Kd (pKd) in the assay with MPP6, Q9NZW5 is 4.7; with NHERF3_1, Q5T2W1, 3.69; with PDLIM1, O00151 it was “below the threshold”; with PDZD2_2, O15018, 4.28; with RADIL, Q96JH8, 4.43; with RAPGEF6, Q8TEU7 it was “below the threshold”. Moreover, the negative logarithm of the Kd (pKd) result with SNTB1, Q13884 is “below the threshold”; with SNTG1, Q9NSN8 it was “below the threshold”; with TIAM2, Q8IVF5 it was 4.23; with TJP1_3, Q07157 it was “below the threshold”.

With GSQSQVETEA [FKBP4, Q02790], the negative logarithm of the Kd (pKd) result in the assay with APBA2_2, Q99767 is “below the threshold”; with ARHGAP21, Q5T5U3 it was “below the threshold”; with DLG1_2, Q12959 it was “below the threshold”; with DLG3_2, Q92796, 4.2; with DLG4_2, P78352 it was 3.59; in the assay with DVL3, Q92997, “below the threshold”. For the same molecule, the pKd result with FRMPD2_3, Q68DX3 is on record as “below the threshold”; with HTRA4, P83105 it was “below the threshold”; with Inadl_3, Q8NI35, “below the threshold”; with Inadl_5, Q8NI35, “below the threshold”; in the assay with LIMK2, P53671, “below the threshold”; in the assay with LNX2_3, Q8N448, “below the threshold”. For the same molecule, the pKd result is “below the threshold” with MPP6, Q9NZW5; “below the threshold” with NHERF3_1, Q5T2W1; “below the threshold” with PDLIM1, O00151; “below the threshold” with PDZD2_2, O15018; “below the threshold” with RADIL, Q96JH8; “below the threshold” with RAPGEF6, Q8TEU7. Further, the pKd entry with SNTB1, Q13884 is “below the threshold”; in the assay with SNTG1, Q9NSN8, “below the threshold”; with TIAM2, Q8IVF5, 4.04; with TJP1_3, Q07157, “below the threshold”.

As to PSVYSRSQYV [CLDN8, P56748], the pKd entry with APBA2_2, Q99767 is “below the threshold”; in the assay with ARHGAP21, Q5T5U3 it was 4.12; in the assay with DLG1_2, Q12959, 3.86; with DLG3_2, Q92796, 3.74; with DLG4_2, P78352, 3.79; in the assay with DVL3, Q92997, 3.63. In addition, the pKd entry with FRMPD2_3, Q68DX3 was “below the threshold”; with HTRA4, P83105, 4.23; with Inadl_3, Q8NI35, “below the threshold”; with Inadl_5, Q8NI35, 4.31; with LIMK2, P53671, “below the threshold”; in the assay with LNX2_3, Q8N448, “below the threshold”. Further, the pKd entry with MPP6, Q9NZW5 was “below the threshold”; with NHERF3_1, Q5T2W1, 5.34; with PDLIM1, O00151, “below the threshold”; in the assay with PDZD2_2, O15018 it was 4.55; with RADIL, Q96JH8, 5.17; with RAPGEF6, Q8TEU7, “below the threshold”. Besides, the pKd result was “below the threshold” with SNTB1, Q13884; “below the threshold” with SNTG1, Q9NSN8; 4.1 with TIAM2, Q8IVF5; “below the threshold” with TJP1_3, Q07157.

Regarding SRPHTNETSL [MCC, P23508], the negative-log Kd (pKd) entry with APBA2_2, Q99767 was “below the threshold”; in the assay with ARHGAP21, Q5T5U3 it was 4.01; in the assay with DLG1_2, Q12959, 4.19; with DLG3_2, Q92796, 3.72; with DLG4_2, P78352, 3.83; with DVL3, Q92997, “below the threshold”. Moreover, the pKd entry in the assay with FRMPD2_3, Q68DX3 was “below the threshold”; with HTRA4, P83105 it was “below the threshold”; with Inadl_3, Q8NI35, “below the threshold”; with Inadl_5, Q8NI35 it was “below the threshold”; in the assay with LIMK2, P53671 it was “below the threshold”; with LNX2_3, Q8N448 it was “below the threshold”. For the same molecule, the negative-log Kd (pKd) result in the assay with MPP6, Q9NZW5 was “below the threshold”; in the assay with NHERF3_1, Q5T2W1, 5.29; with PDLIM1, O00151, “below the threshold”; with PDZD2_2, O15018, “below the threshold”; with RADIL, Q96JH8 it was “below the threshold”; with RAPGEF6, Q8TEU7, “below the threshold”. The pKd with SNTB1, Q13884 is 4.67; with SNTG1, Q9NSN8, 3.93; in the assay with TIAM2, Q8IVF5 it was “below the threshold”; with TJP1_3, Q07157, “below the threshold”.

With QLGSPTADLA [SIPA1, Q96FS4], the negative logarithm of the Kd (pKd) result with APBA2_2, Q99767 is “below the threshold”; with ARHGAP21, Q5T5U3, “below the threshold”; with DLG1_2, Q12959, “below the threshold”; in the assay with DLG3_2, Q92796, 4.06; with DLG4_2, P78352, 3.54; in the assay with DVL3, Q92997, “below the threshold”. Further, the negative-log Kd (pKd) result is given as “below the threshold” with FRMPD2_3, Q68DX3; “below the threshold” in the assay with HTRA4, P83105; “below the threshold” with Inadl_3, Q8NI35; “below the threshold” in the assay with Inadl_5, Q8NI35; “below the threshold” with LIMK2, P53671; “below the threshold” with LNX2_3, Q8N448. The pKd result was “below the threshold” with MPP6, Q9NZW5; “below the threshold” in the assay with NHERF3_1, Q5T2W1; “below the threshold” with PDLIM1, O00151; “below the threshold” with PDZD2_2, O15018; “below the threshold” in the assay with RADIL, Q96JH8; “below the threshold” in the assay with RAPGEF6, Q8TEU7. Further, the pKd result in the assay with SNTB1, Q13884 was “below the threshold”; in the assay with SNTG1, Q9NSN8, “below the threshold”; with TIAM2, Q8IVF5, 4.24; with TJP1_3, Q07157 it was “below the threshold”.
